In patent publication US20200255508A1 (AbbVie / Abbott, published 2020):
Numbering of substitutions follows the chain as printed.

B1: E9-SE5 (antibody, V domains shown)
VH: EVQLQESGPGLVKPSETLSLTCTVSGGSISSSSYYWGWIRQPPGKGLEWIGDIYYTGSTYYNPSLKSRVTISVDTSKNQFSLKLSSVTAADTAVYYCAREDVILRGGSDYWGQGTLVTVSS
VL: EYVLTQSPDFQSVTPKEKVTITCSGQRLGDKYASWYQQKPDQSPKLVIYEDSKRPSGVPSRFSGSNSGDDATLTINSLEAEDAATYYCQAWDRDTGVFGQGTKVEIKR
notes: full-length human IgG1
B2: E9-SE8 (antibody, V domains shown)
VH: B1 VH with S15G, P42A, S81Y, T88R, A90E
VL: B1 VL
notes: full-length human IgG1
B3: E9-SE2 (antibody, V domains shown)
VH: EVQLVESGGGLVQPGGSLRLSCAVSGGSISSSSYYWGWIRQAPGKGLEWIGDIYYTGSTYYNPSLKSRVTISVDTSKNSFYLQMNSLRAEDTAVYYCAREDVILRGGSDYWGQGTLVTVSS
VL: SYELTQPPSVSVSPGQTASITCSGQRLGDKYASWYQQKPGQSPVLVIYEDSKRPSGIPERFSGSNSGDTATLTISGTQPMDEADYYCQAWDRDTGVFGYGTRVTVLG
notes: full-length human IgG1
B4: E9-SE7 (antibody, V domains shown)
VH: B3 VH
VL: B1 VL
notes: full-length human IgG1
B5: E9-SE3 (antibody, V domains shown)
VH: B1 VH with S15G, P42A, S81Y, T88R, A90E
VL: B3 VL
notes: full-length human IgG1
B6: E9-SE4 (antibody, V domains shown)
VH: B1 VH
VL: B3 VL with S1L, E3V, P79T, Y86L, Y99G, R102K
notes: full-length human IgG1
B7: E9-SE6 (antibody, V domains shown)
VH: B1 VH with S15G, P42A, S81Y, T88R, A90E
VL: B3 VL with S1L, E3V, P79T, Y86L, Y99G, R102K
notes: full-length human IgG1
B8: E9-FR1 (antibody, V domains shown)
VH: EVQLVQSGTEVKKPGESLKISCKVSGGSISSSSYYWGWIRQMPGKGLEWIGDIYYTGSTYYNPSLKSQVTISVDTSFNTFFLQWSSLKASDTAMYYCAREDVILRGGSDYWGQGTMVTVSS
VL: EYVLTQSPATLSVSPGERATLSCSGQRLGDKYASWYQQKPGQSPRLVIYEDSKRPSDIPARFSGSNSGDEATLTISSLQSEDFAVYYCQAWDRDTGVFGQGTRLEIKR
notes: full-length human IgG1
B9: E9.7E (antibody, V domains shown)
VH: B1 VH with T56A, S67D, V102M, R105G, S108A, Y110N
VL: SYELTQPPSVSVSPGQTASITCSGDRLGDKYVSWYQQKPGQSPVLVIYEDSERPSGIPERFSGSNSGDTATLTISGTQAMDEADYYCQAWDSEAGVFGSGTKVT
B10: E9.10C (antibody, V domains shown)
VH: B1 VH with S32G, E100Q, D101A, I103M, L104Y, R105G, Y110N
VL: B9 VL with R26S, A94T

target: T1, human DLL4 extracellular domain (human, UniProt Q9NR61 27-529); assay: Biacore SPR;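 as to koff: surface plasmon resonance on a Biacore instrument, antibodies captured on immobilized anti-human Fc, purified recombinant DLL4 extracellular domain injected as analyte, binding followed over time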
T1 construct: extracellular domain; coated on plates in the sVEGFR1 assay; also called huDLL4 ECD; Human DLL4 ECD
Experimental: (§1) The BIACORE® surface plasmon resonance assay (Biacore, Inc., Piscataway, N.J., US) determines the affinity of antibodies with kinetic measurements of on-rate and off-rate constants. Binding of DLL4 antibodies to a purified recombinant DLL4 extracellular domain is determined by surface plasmon resonance-based measurements with a Biacore® instrument (either a Biacore 2000, Biacore 3000, or Biacore T100, GE Healthcare, Piscataway, N.J. US) using running buffer HBS-EPB (10 mM HEPES [pH 7.4], 150 mM NaCl, 3 mM EDTA, 0.1 mg/ml BSA and 0.005% surfactant P20) at 25° C. For example, approximately 9000 RU of goat anti-human Fc specific polyclonal antibody (Thermo Fisher Scientific Inc., Rockford, Ill., US) diluted in 10 mM sodium acetate (pH 4.5) is directly immobilized across a CM5 research grade biosensor chip using a standard amine coupling kit according to manufacturer's instructions and procedures at 25 μg/ml. Unreacted moieties on the biosensor surface are blocked with ethanolamine. For kinetic analysis, rate equations derived from the 1:1 Langmuir binding model are fitted simultaneously to multiple antigen injections (using global fit analysis) with the use of Scrubber 2 (BioLogic Software). […] The equilibrium dissociation constant KD (M) of the reaction between antibodies and the target antigen is then calculated from the kinetic rate constants by the following formula: KD=Koff/Kₒₙ. Binding is recorded as a function of time and kinetic rate constants are calculated. In this assay, on-rates as fast as 10⁶ M⁻¹s⁻¹ and off-rates as slow as 10⁻⁶ s⁻¹ can be measured.

Row | Binder | Kd [nM]
1 | B1 | 1.57
2 | B2 | 2
3 | B3 | 2.43
4 | B4 | 1.69
5 | B5 | 2.26
6 | B6 | 2.38
7 | B7 | 0.64

target: T2, mouse DLL4 extracellular domain (mouse, UniProt Q9JI71 27-532); assay: Biacore SPR;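 as to koff: surface plasmon resonance on a Biacore instrument, antibodies captured on immobilized anti-human Fc, purified recombinant DLL4 extracellular domain injected as analyte, binding followed over time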
T2 construct: extracellular domain; also called muDLL4 ECD; Mouse DLL4 ECD
T2 sequence (Q9JI71 27-532): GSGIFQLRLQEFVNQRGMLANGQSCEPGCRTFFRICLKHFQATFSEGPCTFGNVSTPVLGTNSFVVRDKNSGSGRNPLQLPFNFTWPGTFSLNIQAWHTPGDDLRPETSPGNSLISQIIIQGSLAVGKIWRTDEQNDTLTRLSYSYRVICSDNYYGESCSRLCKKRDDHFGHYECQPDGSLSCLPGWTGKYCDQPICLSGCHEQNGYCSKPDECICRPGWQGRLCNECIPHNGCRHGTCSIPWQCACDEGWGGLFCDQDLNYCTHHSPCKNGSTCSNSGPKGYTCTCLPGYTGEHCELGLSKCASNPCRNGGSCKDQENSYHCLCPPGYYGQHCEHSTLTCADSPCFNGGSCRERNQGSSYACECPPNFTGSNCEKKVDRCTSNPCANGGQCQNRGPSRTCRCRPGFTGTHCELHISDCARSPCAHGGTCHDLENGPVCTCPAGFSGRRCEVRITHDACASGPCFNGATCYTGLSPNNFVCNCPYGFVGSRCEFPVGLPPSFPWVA
Experimental: as §1

Row | Binder | Kd [nM]
8 | B1 | 12.8
9 | B2 | 13
10 | B3 | 15.1
11 | B4 | 16.2
12 | B5 | 12.1
13 | B6 | 10.5
14 | B7 | 10

target: T1, human DLL4 extracellular domain; assay: Biacore SPR; remark: another data set of the same source;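 as to koff: surface plasmon resonance on a Biacore instrument, antibodies captured on immobilized anti-human Fc, purified recombinant DLL4 extracellular domain injected as analyte, binding followed over time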
Experimental: as §1

Row | Binder | Kd [nM]
15 | B8 | 0.72

target: T2, mouse DLL4 extracellular domain; assay: Biacore SPR; remark: another data set of the same source;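 as to koff: surface plasmon resonance on a Biacore instrument, antibodies captured on immobilized anti-human Fc, purified recombinant DLL4 extracellular domain injected as analyte, binding followed over time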
Experimental: as §1

Row | Binder | Kd [nM]
16 | B8 | 1.6

target: T1, human DLL4 extracellular domain; assay: Biacore SPR; remark: another data set of the same source
Experimental: (§2) Binding of DLL4 antibodies to a purified recombinant DLL4 extracellular domain is determined by surface plasmon resonance-based measurements with a Biacore® instrument (either a Biacore 2000, Biacore 3000, or Biacore T100, GE Healthcare, Piscataway, N.J. US) using running buffer HBS-EPB (10 mM HEPES [pH 7.4], 150 mM NaCl, 3 mM EDTA, 0.1 mg/ml BSA and 0.005% surfactant P20) at 25° C. For example, approximately 9000 RU of goat anti-human Fc specific polyclonal antibody (Thermo Fisher Scientific Inc., Rockford, Ill., US) diluted in 10 mM sodium acetate (pH 4.5) is directly immobilized across a CM5 research grade biosensor chip using a standard amine coupling kit according to manufacturer's instructions and procedures at 25 μg/ml. Unreacted moieties on the biosensor surface are blocked with ethanolamine. For kinetic analysis, rate equations derived from the 1:1 Langmuir binding model are fitted simultaneously to multiple antigen injections (using global fit analysis) with the use of Scrubber 2 (BioLogic Software). […] The equilibrium dissociation constant KD (M) of the reaction between antibodies and the target antigen is then calculated from the kinetic rate constants by the following formula: KD=Koff/Kₒₙ. Binding is recorded as a function of time and kinetic rate constants are calculated. In this assay, on-rates as fast as 10⁶ M⁻¹s⁻¹ and off-rates as slow as 10⁻⁶ s⁻¹ can be measured.

Row | Binder | Kd [nM] | koff [s⁻¹] | kon [M⁻¹ s⁻¹]
17 | B9 | 0.27 | 4.12e-05 | 152000
18 | B10 | 0.38 | 4.59e-05 | 120000

target: T2, mouse DLL4 extracellular domain; assay: Biacore SPR; remark: another data set of the same source
Experimental: as §2

Row | Binder | Kd [nM] | koff [s⁻¹] | kon [M⁻¹ s⁻¹]
19 | B9 | 2.3 | 0.000221 | 95300
20 | B10 | 1.6 | 0.000121 | 73700

target: T3, human DLL4-his (human, UniProt Q9NR61 27-529); assay: ELISA on DLL4-his
T3 construct: extracellular domain
Experimental: (§3) After the final wash, plates were incubated with 100 μl/well ELISA substrate (Sigma # T8665). The reaction was stopped after 8 minutes at 25° C. with 100 μl/well 1N HCl and the absorbance was read at 450 nm. Data were analyzed using Graphpad Prism software and EC50 values were reported.

Row | Binder | EC50 [nM]
21 | B1 | 0.16
22 | B2 | 0.18
23 | B3 | 0.18
24 | B4 | 0.17
25 | B5 | 0.18
26 | B6 | 0.17
27 | B7 | 0.17

target: T4, mouse DLL4-his (mouse, UniProt Q9JI71 27-532); assay: ELISA on DLL4-his
T4 construct: extracellular domain; not shown: his tag
T4 sequence (Q9JI71 27-532): as above

Row | Binder | EC50 [nM]
28 | B1 | 0.19
29 | B2 | 0.19
30 | B3 | 0.2
31 | B4 | 0.17
32 | B5 | 0.2
33 | B6 | 0.2
34 | B7 | 0.19

target: T3, human DLL4-his; assay: ELISA on DLL4-his; remark: another data set of the same source
Experimental: as §3

Row | Binder | EC50 [nM]
35 | B8 | 0.11

target: T4, mouse DLL4-his; assay: ELISA on DLL4-his; remark: another data set of the same source
Experimental: as §3

Row | Binder | EC50 [nM]
36 | B8 | 0.13

target: T5, human DLL4 on the cell surface (human, UniProt Q9NR61 27-685); assay: FACS on DLL4 cells
T5 construct: whole, on cells; also called HEK293-hDLL4; hDLL4-293G
Experimental: (§4) Stable cell lines overexpressing cell-surface DLL4 were harvested from tissue culture flasks, washed four times and resuspended in phosphate buffered saline (PBS) containing 1% bovine serum albumin and 1 mM CaCl₂ (FACS buffer), 1.5×10³ cells were incubated with antibodies at various concentrations in FACS buffer for 60 minutes on ice. Cells were washed twice and 50 μL of R-phycoerythrin-conjugated anti-rat IgG. […] Following an incubation on ice (4° C., 60 minutes), cells were washed three times and resuspended in FACS buffer. Fluorescence was measured using a Becton Dickinson FACSCalibur-HTS (Becton Dickinson, San Jose. Calif., US). Data were analyzed using Graphpad Prism software and EC₅₀ values were reported as the concentration of antibody to achieve 50% of maximal DLL4 antibodies binding to DLL4 expressing cells.

Row | Binder | Kd [nM]
37 | B1 | 7.81
38 | B2 | 2.67
39 | B3 | 5.2
40 | B4 | 2.28
41 | B5 | 2.29
42 | B7 | 4.25

target: T6, mouse DLL4 on the cell surface (mouse, UniProt Q9JI71 27-686); assay: FACS on DLL4 cells
T6 construct: whole, on cells; also called HEK293-mDLL4; mDLL4-293G
T6 sequence (Q9JI71 27-686): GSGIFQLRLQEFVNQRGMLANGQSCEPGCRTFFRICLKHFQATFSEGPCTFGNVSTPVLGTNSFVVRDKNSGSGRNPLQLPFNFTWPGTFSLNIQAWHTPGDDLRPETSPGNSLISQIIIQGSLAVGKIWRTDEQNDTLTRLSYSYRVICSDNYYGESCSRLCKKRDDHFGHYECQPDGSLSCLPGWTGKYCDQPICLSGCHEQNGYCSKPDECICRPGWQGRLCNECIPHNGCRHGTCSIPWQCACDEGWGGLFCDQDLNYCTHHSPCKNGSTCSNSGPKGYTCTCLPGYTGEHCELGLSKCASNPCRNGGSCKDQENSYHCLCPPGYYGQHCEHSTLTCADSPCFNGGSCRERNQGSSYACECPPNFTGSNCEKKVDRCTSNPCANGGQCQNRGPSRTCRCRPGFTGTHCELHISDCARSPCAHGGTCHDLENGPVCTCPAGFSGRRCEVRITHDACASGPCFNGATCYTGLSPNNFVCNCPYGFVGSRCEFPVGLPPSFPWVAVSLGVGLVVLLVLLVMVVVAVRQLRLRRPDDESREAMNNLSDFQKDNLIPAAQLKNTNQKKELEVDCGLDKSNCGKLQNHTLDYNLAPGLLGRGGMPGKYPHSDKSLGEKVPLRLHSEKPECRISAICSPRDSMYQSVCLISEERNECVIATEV
Experimental: as §4

Row | Binder | Kd [nM]
43 | B1 | 2.9
44 | B2 | 2.32
45 | B3 | 0.87
46 | B4 | 2.24
47 | B5 | 0.74
48 | B6 | 1.15
49 | B7 | 1.18

target: T5, human DLL4 on the cell surface; assay: FACS on DLL4 cells; remark: another data set of the same source
Experimental: as §4

Row | Binder | Kd [nM]
50 | B8 | 4

target: T6, mouse DLL4 on the cell surface; assay: FACS on DLL4 cells; remark: another data set of the same source
Experimental: as §4

Row | Binder | Kd [nM]
51 | B8 | 2.51

target: T5, human DLL4 on the cell surface; assay: FACS on DLL4 cells; remark: another data set of the same source

Row | Binder | EC50 [nM]
52 | B9 | 4.46
53 | B10 | 3.15

target: T6, mouse DLL4 on the cell surface; assay: FACS on DLL4 cells; remark: another data set of the same source

Row | Binder | EC50 [nM]
54 | B9 | 1.94
55 | B10 | 0.88

target: T5, human DLL4 on the cell surface; assay: cell-based or functional assay

Row | Binder | Inhibition of Notch activation via huDLL4 cells, coculture (IC50, nM) [nM]
56 | B9 | 0.41
57 | B10 | 0.85

target: T5, human DLL4 on the cell surface; assay: competition FACS, competitor huNotch-1
Experimental: (§5) Notch blocking assay: Briefly, stable cell lines overexpressing cell-surface DLL4 were harvested from tissue culture flasks and re-suspended in phosphate buffered saline (PBS) containing 1% bovine serum albumin and 1 mM CaCl₂ (FACS buffer). HEK293-hDLL4 or HEK293-mDLL4 cells were dispensed into 96-well plate (v-bottom) at 1.5×10⁵ cells/well in FACS buffer. […] After washing the cells two times with FACS buffer, 50 μL of R-phycoerythrin-conjugated streptavidin (1:150 dilution in FACS buffer) (Jackson ImmunoResearch, West Grove, Pa., US, catalog no. 016-110-084) were added. Following an incubation on ice (4° C., 60 minutes), cells were washed three times and resuspended in FACS buffer. Fluorescence was measured using a Becton Dickinson FACSCalibur-HTS (Becton Dickinson, San Jose. Calif.).

Row | Binder | IC50 [nM]
58 | B1 | 6.38
59 | B2 | 9.25
60 | B3 | 5.61
61 | B4 | 7.81
62 | B5 | 6.75
63 | B6 | 5.82
64 | B7 | 8.16

target: T6, mouse DLL4 on the cell surface; assay: competition FACS, competitor huNotch-1
Experimental: as §5

Row | Binder | IC50 [nM]
65 | B1 | 1.76
66 | B2 | 2.3
67 | B3 | 1.23
68 | B4 | 1.94
69 | B5 | 1.25
70 | B6 | 1.71
71 | B7 | 1.53

target: T5, human DLL4 on the cell surface; assay: competition FACS, competitor huNotch-1; remark: another data set of the same source
Experimental: as §5

Row | Binder | IC50 [nM]
72 | B8 | 1.57

target: T6, mouse DLL4 on the cell surface; assay: competition FACS, competitor huNotch-1; remark: another data set of the same source
Experimental: as §5

Row | Binder | IC50 [nM]
73 | B8 | 0.98

target: T5, human DLL4 on the cell surface; assay: competition FACS, competitor huNotch-1; remark: another data set of the same source
Experimental: as §5

Row | Binder | IC50 [nM]
74 | B9 | 4
75 | B10 | 3.03

target: T6, mouse DLL4 on the cell surface; assay: competition FACS, competitor huNotch-1; remark: another data set of the same source
Experimental: as §5

Row | Binder | IC50 [nM]
76 | B9 | 0.33
77 | B10 | 0.26

target: T1, human DLL4 extracellular domain; assay: competition ELISA, competitor huNotch-1
Experimental: (§6) Plates were then washed 3 times with wash buffer (PBS, 0.05% Tween-20) and blocked with 200 μl/well blocking buffer (D-PBS, 1% BSA, 1 mM CaCl₂, 0.05% Tween-20) for 1 hour at 25° C. […] Assay plates were washed after blocking, and incubated with DLL4/antibody mixtures (100 μl/well, 1 hour at 25° C. with shaking). […] After a final wash, plates were developed using 100 μl/well substrate (TMB Sigma # T8665), and the reaction was stopped after an 8-minute incubation at 25° C. (for muDLL4 ELISA) and after 20 minute incubation at 25° C. (for huDLL4 ELISA) using 100 μl/well 1N HCl, and the absorbance was read at 450 nm.

Row | Binder | IC50 [nM]
78 | B1 | 2.6
79 | B2 | 2.5
80 | B3 | 2.6
81 | B4 | 2.4
82 | B5 | 2.5
83 | B6 | 2.7
84 | B7 | 2.5

target: T2, mouse DLL4 extracellular domain; assay: competition ELISA, competitor huNotch-1
Experimental: as §6

Row | Binder | IC50 [nM]
85 | B1 | 2.4
86 | B2 | 2.6
87 | B3 | 2.2
88 | B4 | 2.4
89 | B5 | 2.1
90 | B6 | 2.9
91 | B7 | 2.9

target: T1, human DLL4 extracellular domain; assay: competition ELISA, competitor huNotch-1; remark: another data set of the same source
Experimental: as §6

Row | Binder | IC50 [nM]
92 | B8 | 1.54

target: T2, mouse DLL4 extracellular domain; assay: competition ELISA, competitor huNotch-1; remark: another data set of the same source
Experimental: as §6

Row | Binder | IC50 [nM]
93 | B8 | 3.35
